# Measured values reported in the RNAGym collection of RNA variant scans (doi:10.1093/molbev/msab373).
# B1: Azoarcus group I ribozyme (parent)
# chain: GUGCCUUGCGCCGGGAAACCACGCAAGGGAUGGUGUCAAAUUCGGCGAAACCUAAGCGCCCGCCCGGGCGUAUGGCAACGCCGAGCCAAGCUUCGGCGCCUGCGCCGAUGAAGGUGUAGAGACUAGACGGCACCCACCUAAGGCAAACGCUAUGGUGAAGGCAUAGUCCAGGGAGUGGCGAAAGUCACACAAACCGG
# Variants of: B1
# Experiment: reverse-splicing fitness (ratio to wild type); higher = more active; in vitro selection; Mg2+ level not given
# Method in brief: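 An in vitro group I ribozyme library with randomized positions was T7-transcribed and gel-purified. In triplicate, 10 pmol RNA in EPPS pH 7.5 was reacted with 50 pmoles of a 30-nt RNA substrate for 1 h at 37 °C across several added MgCl2 levels (1–48 mM), then stopped with EDTA. Products were reverse transcribed from a substrate-complementary primer, PCR-amplified and sequenced (HiSeq 4000). Fitness is a variant's read proportion after selection over that before, normalised to wild type.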
row,Variant,reverse-splicing fitness
1,GUGCCUUGCGCCGGGAAACCACGCAAGGGAUGGUGUCAAAUUCGGCGAAACCUAAGCGCCCGCCCGGGCGUAUGGCAACGCCGAGCCAAGCUUCGGCGCCUGCGCCGAUGAAGGUGUAGCGACUAGACGGCACCCACCUAAGGCUAACGUUAUGGUGAAGGCAUAGUCCAGGGAGCGGCGAAAGUCACACAAACCGG [A120C A145U C150U U176C],0.562
2,GUGCCUUGCGCCGGGAAACCACGCAAGGGAUGGUGUCAAAUUCGGCGAAACCUAAGCGCCCGCCCGGGCGUAUGGCAACGCCGAGCCAAGCUUCGGCGCCUGCGCCGAUGAAGGUGUAGCGACUAGACGGCACCCACCUAAGGCUAACGUUAUGGUGAAGGCAUAGUCCAGGGAGGGGCGAAAGUCACACAAACCGG [A120C A145U C150U U176G],0.2
3,GUGCCUUGCGCCGGGAAACCACGCAAGGGAUGGUGUCAAAUUCGGCGAAACCUAAGCGCCCGCCCGGGCGUAUGGCAACGCCGAGCCAAGCUUCGGCGCCUGCGCCGAUGAAGGUGUAGCGACUAGACGGCACCCACCUAAGGCUAACGUUAUGGUGAAGGCAUAGUCCAGGGAGAGGCGAAAGUCACACAAACCGG [A120C A145U C150U U176A],0.652
4,GUGCCUUGCGCCGGGAAACCACGCAAGGGAUGGUGUCAAAUUCGGCGAAACCUAAGCGCCCGCCCGGGCGUAUGGCAACGCCGAGCCAAGCUUCGGCGCCUGCGCCGAUGAAGGUGUAGCGACUAGACGGCACCCACCUAAGGCUAACGGUAUGGUGAAGGCAUAGUCUAGGGAGUGGCGAAAGUCACACAAACCGG [A120C A145U C150G C169U],0.107
5,GUGCCUUGCGCCGGGAAACCACGCAAGGGAUGGUGUCAAAUUCGGCGAAACCUAAGCGCCCGCCCGGGCGUAUGGCAACGCCGAGCCAAGCUUCGGCGCCUGCGCCGAUGAAGGUGUAGCGACUAGACGGCACCCACCUAAGGCUAACGCUAUGGUGAAGGCAUAGUCGAGGGAGCGGCGAAAGUCACACAAACCGG [A120C A145U C169G U176C],0.0112
6,GUGCCUUGCGCCGGGAAACCACGCAAGGGAUGGUGUCAAAUUCGGCGAAACCUAAGCGCCCGCCCGGGCGUAUGGCAACGCCGAGCCAAGCUUCGGCGCCUGCGCCGAUGAAGGUGUAGCGACUAGACGGCACCCACCUAAGGCUAACGCUAUGGUGAAGGCAUAGUCGAGGGAGAGGCGAAAGUCACACAAACCGG [A120C A145U C169G U176A],0.00826
7,GUGCCUUGCGCCGGGAAACCACGCAAGGGAUGGUGUCAAAUUCGGCGAAACCUAAGCGCCCGCCCGGGCGUAUGGCAACGCCGAGCCAAGCUUCGGCGCCUGCGCCGAUGAAGGUGUAGCGACUAGACGGCACCCACCUAAGGCUAACGCUAUGGUGAAGGCAUAGUCAAGGGAGAGGCGAAAGUCACACAAACCGG [A120C A145U C169A U176A],0.01
8,GUGCCUUGCGCCGGGAAACCACGCAAGGGAUGGUGUCAAAUUCGGCGAAACCUAAGCGCCCGCCCGGGCGUAUGGCAACGCCGAGCCAAGCUUCGGCGCCUGCGCCGAUGAAGGUGUAGCGACUAGACGGCACCCACCUAAGGCUAACGCUAUGGUGAAGGCAUAGUCAAGGGAGGGGCGAAAGUCACACAAACCGG [A120C A145U C169A U176G],0.00466
9,GUGCCUUGCGCCGGGAAACCACGCAAGGGAUGGUGUCAAAUUCGGCGAAACCUAAGCGCCCGCCCGGGCGUAUGGCAACGCCGAGCCAAGCUUCGGCGCCUGCGCCGAUGAAGGUGUAGCGACUAGACGGCACCCACCUAAGGCUAACGCUAUGGUGAAGGCAUAGUCAAGGGAGCGGCGAAAGUCACACAAACCGG [A120C A145U C169A U176C],0.0127
10,GUGCCUUGCGCCGGGAAACCACGCAAGGGAUGGUGUCAAAUUCGGCGAAACCUAAGCGCCCGCCCGGGCGUAUGGCAACGCCGAGCCAAGCUUCGGCGCCUGCGCCGAUGAAGGUGUAGCGACUAGACGGCACCCACCUAAGGCUAACGGUAUGGUGAAGGCAUAGUCCAGGGAGAGGCGAAAGUCACACAAACCGG [A120C A145U C150G U176A],0.137
11,GUGCCUUGCGCCGGGAAACCACGCAAGGGAUGGUGUCAAAUUCGGCGAAACCUAAGCGCCCGCCCGGGCGUAUGGCAACGCCGAGCCAAGCUUCGGCGCCUGCGCCGAUGAAGGUGUAGCGACUAGACGGCACCCACCUAAGGCUAACGGUAUGGUGAAGGCAUAGUCCAGGGAGCGGCGAAAGUCACACAAACCGG [A120C A145U C150G U176C],0.156
12,GUGCCUUGCGCCGGGAAACCACGCAAGGGAUGGUGUCAAAUUCGGCGAAACCUAAGCGCCCGCCCGGGCGUAUGGCAACGCCGAGCCAAGCUUCGGCGCCUGCGCCGAUGAAGGUGUAGCGACUAGACGGCACCCACCUAAGGCUAACGGUAUGGUGAAGGCAUAGUCCAGGGAGGGGCGAAAGUCACACAAACCGG [A120C A145U C150G U176G],0.0206
13,GUGCCUUGCGCCGGGAAACCACGCAAGGGAUGGUGUCAAAUUCGGCGAAACCUAAGCGCCCGCCCGGGCGUAUGGCAACGCCGAGCCAAGCUUCGGCGCCUGCGCCGAUGAAGGUGUAGCGACUAGACGGCACCCACCUAAGGCUAACGGUAUGGUGAAGGCAUAGUCUAGGGAGGGGCGAAAGUCACACAAACCGG [A120C A145U C150G C169U U176G],0.00515
14,GUGCCUUGCGCCGGGAAACCACGCAAGGGAUGGUGUCAAAUUCGGCGAAACCUAAGCGCCCGCCCGGGCGUAUGGCAACGCCGAGCCAAGCUUCGGCGCCUGCGCCGAUGAAGGUGUAGCGACUAGACGGCACCCACCUAAGGCUAACGGUAUGGUGAAGGCAUAGUCUAGGGAGAGGCGAAAGUCACACAAACCGG [A120C A145U C150G C169U U176A],0.0184
15,GUGCCUUGCGCCGGGAAACCACGCAAGGGAUGGUGUCAAAUUCGGCGAAACCUAAGCGCCCGCCCGGGCGUAUGGCAACGCCGAGCCAAGCUUCGGCGCCUGCGCCGAUGAAGGUGUAGCGACUAGACGGCACCCACCUAAGGCUAACGGUAUGGUGAAGGCAUAGUCUAGGGAGCGGCGAAAGUCACACAAACCGG [A120C A145U C150G C169U U176C],0.0535
